Experiments:
Assay in all cases: Kinase Profiling Assay
Assay type in all cases: biochemical
Details in all cases: 100 μM peptide
DRAK1(h) = biological target: T1, DRAK1(h) (Homo sapiens, UniProt Q9UEE5)
T1 sequence (Q9UEE5 1-414): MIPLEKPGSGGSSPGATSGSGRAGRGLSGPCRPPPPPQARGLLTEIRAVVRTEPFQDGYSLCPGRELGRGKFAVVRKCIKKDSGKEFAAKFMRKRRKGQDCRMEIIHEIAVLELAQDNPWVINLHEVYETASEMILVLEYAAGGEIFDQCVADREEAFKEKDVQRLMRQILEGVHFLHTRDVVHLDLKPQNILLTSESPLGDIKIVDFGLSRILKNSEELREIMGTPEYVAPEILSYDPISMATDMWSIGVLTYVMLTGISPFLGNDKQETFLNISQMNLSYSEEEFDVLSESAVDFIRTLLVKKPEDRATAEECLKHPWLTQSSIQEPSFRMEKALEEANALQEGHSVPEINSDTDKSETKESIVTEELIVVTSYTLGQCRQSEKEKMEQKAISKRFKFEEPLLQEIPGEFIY
How it was run: (§1)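 Each kinase in a 266-member human panel is assayed, in duplicate, for activity in the presence of MK2 inhibitory peptides to gauge specificity.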

PKBβ(h) = PKBβ(h) (Homo sapiens, UniProt P31751)
Sequence of PKBβ(h) (P31751 whole entry): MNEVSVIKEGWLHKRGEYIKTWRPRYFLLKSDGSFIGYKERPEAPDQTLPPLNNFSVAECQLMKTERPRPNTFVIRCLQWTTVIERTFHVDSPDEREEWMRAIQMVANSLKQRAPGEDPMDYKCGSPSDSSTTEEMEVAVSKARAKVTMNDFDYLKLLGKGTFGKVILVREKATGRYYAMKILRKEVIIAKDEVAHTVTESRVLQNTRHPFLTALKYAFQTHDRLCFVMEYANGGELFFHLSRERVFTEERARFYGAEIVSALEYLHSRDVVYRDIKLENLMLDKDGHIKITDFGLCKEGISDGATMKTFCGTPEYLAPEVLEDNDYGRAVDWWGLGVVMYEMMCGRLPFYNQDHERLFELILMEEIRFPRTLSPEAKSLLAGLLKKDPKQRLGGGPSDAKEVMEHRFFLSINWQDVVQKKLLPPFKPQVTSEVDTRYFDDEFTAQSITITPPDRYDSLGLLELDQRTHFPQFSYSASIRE
How it was run: as §1

PKD2(h) = biological target: T2, PKD2(h) (Homo sapiens, UniProt Q9BZL6)
T2 construct: purchased Millipore (IC50 Profiler Express service)
T2 sequence (Q9BZL6 1-878): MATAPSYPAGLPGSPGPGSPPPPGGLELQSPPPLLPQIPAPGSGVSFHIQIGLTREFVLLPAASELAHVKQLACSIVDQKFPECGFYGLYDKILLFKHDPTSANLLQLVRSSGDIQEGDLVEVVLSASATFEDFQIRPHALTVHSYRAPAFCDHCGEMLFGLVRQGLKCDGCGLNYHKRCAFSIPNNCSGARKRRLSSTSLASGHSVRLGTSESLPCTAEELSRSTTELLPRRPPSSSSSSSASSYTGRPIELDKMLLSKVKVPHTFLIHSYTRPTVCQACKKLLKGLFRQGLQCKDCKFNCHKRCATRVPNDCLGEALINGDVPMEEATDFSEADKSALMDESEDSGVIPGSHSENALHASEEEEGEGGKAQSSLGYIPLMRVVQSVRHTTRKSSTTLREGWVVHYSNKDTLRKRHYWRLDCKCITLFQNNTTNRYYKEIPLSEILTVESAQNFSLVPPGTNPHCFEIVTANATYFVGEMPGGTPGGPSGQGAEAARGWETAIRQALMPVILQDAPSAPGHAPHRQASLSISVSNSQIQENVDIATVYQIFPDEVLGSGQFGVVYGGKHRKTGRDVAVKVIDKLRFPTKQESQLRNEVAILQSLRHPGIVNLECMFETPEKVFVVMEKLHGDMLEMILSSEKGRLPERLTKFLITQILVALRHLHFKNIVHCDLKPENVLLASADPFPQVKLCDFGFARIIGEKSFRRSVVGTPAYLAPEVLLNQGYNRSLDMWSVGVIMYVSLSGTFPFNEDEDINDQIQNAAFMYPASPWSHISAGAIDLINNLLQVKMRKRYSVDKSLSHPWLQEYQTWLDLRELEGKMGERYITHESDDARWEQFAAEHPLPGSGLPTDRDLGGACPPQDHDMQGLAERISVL
How it was run: as §1

ULK3(h) = biological target: T3, ULK3(h) (Homo sapiens, UniProt Q6PHR2)
T3 sequence (Q6PHR2 1-472): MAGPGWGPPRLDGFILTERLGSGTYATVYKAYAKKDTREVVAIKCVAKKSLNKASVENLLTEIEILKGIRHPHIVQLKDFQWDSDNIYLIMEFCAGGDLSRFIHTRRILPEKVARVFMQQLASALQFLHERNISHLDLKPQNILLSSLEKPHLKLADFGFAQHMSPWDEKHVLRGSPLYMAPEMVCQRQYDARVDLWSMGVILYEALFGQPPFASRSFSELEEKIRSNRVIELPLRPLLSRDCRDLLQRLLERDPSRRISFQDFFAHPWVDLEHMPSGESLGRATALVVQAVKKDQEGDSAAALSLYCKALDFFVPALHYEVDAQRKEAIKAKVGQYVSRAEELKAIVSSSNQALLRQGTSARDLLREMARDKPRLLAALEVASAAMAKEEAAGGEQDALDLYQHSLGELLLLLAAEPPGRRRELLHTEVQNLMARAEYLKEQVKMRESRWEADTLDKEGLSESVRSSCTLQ
How it was run: as §1

CDK2/cyclinE(h) = CDK2/cyclinE(h) (Homo sapiens, UniProt P24941)
How it was run: as §1

eEF-2K(h) = eEF-2K(h) (Homo sapiens, UniProt O00418)
How it was run: as §1

Row | Sequence | DRAK1(h) % activity (DRAK1(h)) [%] | PKBβ(h) % activity (PKBβ(h)) [%] | PKD2(h) % activity (PKD2(h)) [%] | ULK3(h) % activity (ULK3(h)) [%] | CDK2/cyclinE(h) % activity (CDK2/cyclinE(h)) [%] | eEF-2K(h) % activity (eEF-2K(h)) [%]
1 | YARAAARQARAKALNRQLGVA (Mammalian) [MMI-0200] | 34 | 250 | 78 | 164 |  | 
2 | HRRIKAWLKKIKALARQLGVAA (Mammalian) [MMI-0500] | 8 | 21 | 10 | 177 | 19 | 43
3 | KAFAKLAARLYRKALARQLGVAA [MMI-0400] | 14 | 98 | 25 | 147 | 83 | 43
4 | FAKLAARLYRKALARQLGVAA [MMI-0300] | 14 | 84 | 33 | 167 | 94 | 91

Reference: patent publication US10562947B2, “Compositions and methods for preventing or treating diseases, conditions or processes characterized by aberrant fibroblast proliferation and extracellular matrix deposition” (MOERAE MATRIX, INC., priority 2011, dated 2020)
